Assay results: publication PMC12924673 (Science (New York, N.Y.), 2024)

B1: full-length (FL) BCL11A, recombinant (natural protein, UniProt Q9H165-1 1-835, looked up)
chain: MSRRKQGKPQHLSKREFSPEPLEAILTDDEPDHGPLGAPEGDHDLLTCGQCQMNFPLGDILIFIEHKRKQCNGSLCLEKAVDKPPSPSPIEMKKASNPVEVGIQVTPEDDDCLSTSSRGICPKQEHIADKLLHWRGLSSPRSAHGALIPTPGMSAEYAPQGICKDEPSSYTCTTCKQPFTSAWFLLQHAQNTHGLRIYLESEHGSPLTPRVGIPSGLGAECPSQPPLHGIHIADNNPFNLLRIPGSVSREASGLAEGRFPPTPPLFSPPPRHHLDPHRIERLGAEEMALATHHPSAFDRVLRLNPMAMEPPAMDFSRRLRELAGNTSSPPLSPGRPSPMQRLLQPFQPGSKPPFLATPPLPPLQSAPPPSQPPVKSKSCEFCGKTFKFQSNLVVHRRSHTGEKPYKCNLCDHACTQASKLKRHMKTHMHKSSPMTVKSDDGLSTASSPEPGTSDLVGSASSALKSVVAKFKSENDPNLIPENGDEEEEEDDEEEEEEEEEEEEELTESERVDYGFGLSLEAARHHENSSRGAVVGVGDESRALPDVMQGMVLSSMQHFSEAFHQVLGEKHKRGHLAEAEGHRDTCDEDSVAGESDRIDDGTVNGRGCSPGESASGGLSKKLLLGSPSSLSPFSKRIKLEKEFDLPPAAMPNTENVYSQWLAGYAASRQLKDPFLSFGDSRQSPFASSSEHSSENGSLRFSTPPGELDGGISGRSGTGSGGSTPHISGPGPGRPSSKEGRRSDTCEYCGKVFKNCSNLTVHRRSHTGERPYKCELCNYACAQSSKLTRHMKTHGQVGKDVYKCEICKMPFSVYSTLEKHMKKWHSDRVLNNDIKTE

Columns and labels:
[1] = target: recombinant ZnF0 of BCL11A; test: native gel or EMSA
[2] = target: recombinant ZnF0 of BCL11A; test: AUC
[3] = target: recombinant ZnF0 of BCL11A; test: crystal structure
[4] = target: recombinant ZnF0 of BCL11A; test: dynamic light scattering
native gel or EMSA = target: the molecule itself; test: native gel or EMSA

Row | Molecule | stoichiometry N [1] | stoichiometry N [2] | stoichiometry N [3] | stoichiometry N [4] | binding result (native gel or EMSA)
1 | recombinant ZnF0 of BCL11A (domain or fragment) | 4 | 4 | 4 | 4 | 
2 | B1 |  |  |  |  | binds
